Reference: US20260146247A1

Target: CD4 (human) (UniProt P01730)
Assay: cell-based or functional assay

“HIV-1 envelope glycoprotein (Env) (from UniProt P04578 33-856)” showed a transduction (mNeonGreen+) of CD4+ cells in a mixture of CD4+ and CD8+ primary human T cells treated with Env-Cas9-VLPs, highest treatment dose of 53.2%.
